The results in this text go back to US20220273713A1, “METHOD OF INHIBITING OR ACTIVATING GAMMA DELTA T CELLS” (The University of Melbourne, priority 2019, published 2022).

One experiment has as its system γδ T cells. The experiment can be described thus: Identification of BTN2A1 agonistic antibodies: CD25 and interferon γ of expanded γδ T cells. The format is cell-based, human. The conditions noted are these: 10 μg/ml antibody overnight, vs isotype control BM4. The protocol:
In some experiments γδ T cells were enriched by MACS using PE-Cy7-conjugated anti-γδTCR followed by anti-phycoerythrin-mediated magnetic bead purification (Miltenyi Biotec). After enrichment CD3+Vδ2+ γδ T cells were further purified by sorting using an Aria III (BD). Enriched γδ T cells were stimulated in vitro for 48 h with plate-bound anti-CD3ε (OKT3, 10 ug/ml, Bio-X-Cell), soluble anti-CD28 (CD28.2, 1 ug/ml, BD Pharmingen), phytohemagglutinin (0.5 μg/ml, Sigma), IL-15 (50 ng/ml), and recombinant human IL-2 (100 U/ml, PeproTech), followed by maintenance with IL-2 and IL-15 for 14-21 d. Cells were cultured in complete medium consisting of a 50:50 (v/v) mixture of RPMI-1640 and AIM-V (Invitrogen) supplemented with 10% (v/v) FCS (JRH Biosciences), penicillin (100 U/ml), streptomycin (100 μg/ml), Glutamax (2 mM), sodium pyruvate (1 mM), nonessential amino acids (0.1 mM), and HEPES buffer (15 mM), pH 7.2-7.5 (all from Invitrogen Life Technologies), plus 50 μM 2-mercaptoethanol (Sigma-Aldrich).
The inventors screened the panel of antibodies specific for BTN2A1, as described above, to identify those able to agonise BTN2A1. The inventors assessed the ability of anti-BTN2A1 antibodies to activate γδ T cells. The inventors assessed upregulation of CD25 on the surface of previously expanded γδ T cells following culturing the cells with 10 μg/ml anti-BTN2A1 antibodies or isotype control antibody (BM4) overnight.
The inventors additionally measured levels of interferon γ secreted by γδ T cells following culture in the presence of 10 μg/ml anti-BTN2A1 antibodies or isotype control antibody (BM4) overnight. Interferon γ secretion is another indicator of TCR-dependent activation.

The test system of the next experiment is PBMCs. Nature of the experiment: Luminex (PBMCs): cytokine/chemokine expression in freshly isolated PBMCs. The format is cell-based, human. On the procedure:
Blood from a healthy donor (Red Cross Australia) was ficolled, PBMC layer collected, washed and 5×10^5 cells were treated with the indicated antibodies in duplicates @ 10 μg/ml in 500 ul TCRPMI supplemented with 100u/ml IL-2 and incubated at 37 degrees C. and 5% CO2 for 16 hrs. Supernatants were collected and submitted for Luminex Human 20-plex Inflammation panel analysis (EPX200-12185-901) to Crux Biolabs (Scoresby, VIC, Australia). This measures the following analytes: GM-CSF; ICAM-1, IFN-α; IFN-g, IL-1α, IL-1b, IL-10, IL-12p70, IL-13, IL-17A, IL-4, IL-8, IP-10, MCP-1, IL-6, MIP-1α, MIP-1b, sE-selectin, sP-Selectin, TNF-α. All samples were run with appropriate controls and standards. Treatment with antibody 259 was only performed in one well.

The next experiment has as its target T1, BTN2A2 (Homo sapiens, UniProt Q8WVV5).
T1 sequence (Q8WVV5 33-265 limits assumed): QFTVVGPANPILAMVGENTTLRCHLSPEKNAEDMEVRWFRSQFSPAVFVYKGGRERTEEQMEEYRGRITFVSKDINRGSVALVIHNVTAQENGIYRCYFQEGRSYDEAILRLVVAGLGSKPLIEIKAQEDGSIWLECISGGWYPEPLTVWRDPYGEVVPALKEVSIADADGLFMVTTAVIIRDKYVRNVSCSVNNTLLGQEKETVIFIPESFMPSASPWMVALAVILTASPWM
Nature of the experiment: Cross-reactivity of anti-BTN2A1 mAb to BTN2A2 (ELISA, transfected cells). The format is binding. On the procedure: Purified recombinant proteins (0.2-20 μg/ml) were immobilized in microplate wells in PBS buffer overnight at 4° C. Non-specific binding was then blocked by incubation in PBS containing 0.05% tween 20 plus 5% skim milk powder or 0.5% (w/v) bovine serum albumin (BSA). The wells were then incubated for 60 minutes at room temperature in the presence of antibodies at 2-5 μg/mL in PBS/0.05% tween-20/2% skim milk powder or 0.5% BSA, followed by washing in PBS/0.05% tween-20. Plates were then incubated with HRP-labelled sheep anti-mouse IgG secondary antibody (Chemicon), or goat anti-mouse IgG secondary antibody (Millipore) followed by detection using 3,3′,5,5′-tetramethylbenzidine substrate (Sigma) and absorbance was measured at 450 nm using a plate reader.

The test system of the next experiment is LM-MEL-62 melanoma cells. The experiment can be described thus: In vitro killing assays (antibody titration, E:T titration), MTS. The format is cell-based, human. The protocol:
Vγ9Vδ2 cells were isolated from either healthy donor (Red Cross Australia) or cancer patient derived PBMC using TCRγ/δ+ T Cell Isolation Kit (Miltenyi). Patients provided informed consent and research was approved under HREC 14/425. […] For all assays LM-MEL-62 melanoma cells were plated out at 10,000 cells/well in 100 μl RF10 media in 96-well flat bottomed plates and left to adhere overnight at 37 degrees C. and 5% CO2. […] Cells were incubated at 37 degrees C. and 5% CO2. At day 3 Vγ9Vδ2 cells were washed out and 100 μl MTS reagent was added to wells for 1 hour as per manufacturers protocol (Promega, USA). Plates were subsequently read at 490 nm using a Spectrostar Nano microplate reader (BMG Labtech) to determine cell viability corrected for background absorbance.

A further experiment concerns Vγ9Vδ2 cells. Nature of the experiment: Flow cytometry: CD25 on Vγ9Vδ2 cells without phosphoantigen or APCs. The format is cell-based, human. Conditions: no addition of APCs or phosphoantigen; listed as 259. The source says: Vγ9Vδ2 cells were stained for CD3, Vδ2, CD25 and live dead viability dye as previously described and analysed on a Canto flow cytometer (BD). Cells were gated on lymphocytes, single cells, live cells, CD3+ Vδ2+, and activation determined based on CD25 expression.

Where [1] appears, read: PBMCs from a healthy donor, antibodies 10 μg/ml, 16 hrs, duplicates, 259 one well.

“Also recorded” adds a separate entry of the source.

B1: antibody 259: agonistic anti-BTN2A1 antibody; VL SEQ ID NO: 156, VH SEQ ID NO: 160 (antibody, V domains shown)
VH: EVQLLESGGGLVQPGGSLRLSCAASGFTFSSYAMQWVRQAPGKGLEWVSRIGPSGGGTMYADSVKGRFTISRDNSKNTLYLQMNSLRAEDMAVYYCARDLGGLSVLFDYWGQGTLVTVSS
VL: QSELTQPPSASETPGQRVTISCSGSSSNIGSNTVSWFQQLPGSAPRLLIYNDHRRPSGVPDRFSGSKSGTSASLVISGLQSQDEADYYCSAWDDSLNGVVFGGGTKLTVL
modifications: amino acid sequence of the VH of antibody 259; amino acid sequence of the VL of antibody 259
As to B1, in the experiment on γδ T cells, the “level of secreted interferon γ” value is “increase the level of secreted interferon γ” and the “percentage of γδ T cells expressing CD25” value is “increase the percentage of γδ T cells expressing CD25”. In the experiment with PBMCs (setting [1]), this molecule showed an ICAM-1 of 1578.36 pg/mL, an IFNγ of 104.96 pg/mL, an IL-1α of 8.7 pg/mL and an IL-1β of 5.19 pg/mL. In the experiment with PBMCs (setting [1]), this molecule registered an IL-6 of 462.59 pg/mL, an IL-8 of 495.89 pg/mL, an IL-10 of 49.99 pg/mL and an IL-17A of 24.59 pg/mL. In the experiment with PBMCs (setting [1]), the IP-10 came to 641.08 pg/mL, the MCP-1 stood at 1023.7 pg/mL, the MIP-1α stood at 131.71 pg/mL and the MIP-1β was determined as 584.34 pg/mL. In addition, in the experiment with PBMCs (setting [1]), the sE-selectin was found to be 327.64 pg/mL. Moreover, the TNFα levels entry in the experiment on PBMCs (full PBMC) is listed as “no increase”. In addition, in the experiment on PBMCs (full PBMC, vs isotype), the “IL-8 (CXCL8), CCL2 (MCP-1) and IL-6” value is recorded as “up-regulated”; the “expression of IFNγ and sE-Selectin” value is given as “increased expression”. Besides, in the experiment with BTN2A2, the “cross-reactivity to BTN2A2” value is reported as “not cross-reactive”. In addition, in the experiment on LM-MEL-62 melanoma cells (E:T titration 2:1 to 1:16, 10 ug/ml antibody 259 or 4 uM zoledronate, both donors), the “tumour cell killing compared to treatment with zoledronic acid” value is “killing occurred to a lesser extent”. The “induction of LM-MEL-62 cell killing, 259 compared with 253” value with LM-MEL-62 melanoma cells (LM-MEL-62 with Vγ9Vδ2 cells 1:1, antibody titration, listed as 259) is given as “more potent inducer of cell killing than antibody 253; also recorded: lower viability rates of LM-MEL-62 cells when compared to antibody 253”. Besides, the “activation of Vγ9Vδ2 cells by CD25 upregulation” value in the experiment with Vγ9Vδ2 cells is given as “higher activation potential; also recorded: can mimic phosphoantigen mediated activation to various degrees”.
